# Experimental data: patent publication US20130315910A1 (Xencor, published 2013)
# Numbering of substitutions follows the chain as printed. Numbers in names are those of the source.
# T1: human FcγRIIb receptor protein (R&D Systems) (human, UniProt P31994 46-217)
# T1 construct: Bought protein injected over captured antibody in Biacore; also called CD32b
# T1 sequence (looked up): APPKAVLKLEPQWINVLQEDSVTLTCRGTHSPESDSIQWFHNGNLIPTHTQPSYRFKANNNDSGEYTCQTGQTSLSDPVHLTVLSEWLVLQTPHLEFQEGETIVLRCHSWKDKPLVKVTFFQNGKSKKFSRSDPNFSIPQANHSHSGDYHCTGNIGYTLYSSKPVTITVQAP
# T2: human FcγRIIa (131R), His- and GST-tagged (human, UniProt P12318 34-217)
# T2 construct: Expressed in HEK293T cells, purified by nickel chromatography; also called R131 FcγRIIa; not shown: 6xHis and GST tags of the pTT5 vector
# T2 sequence (looked up): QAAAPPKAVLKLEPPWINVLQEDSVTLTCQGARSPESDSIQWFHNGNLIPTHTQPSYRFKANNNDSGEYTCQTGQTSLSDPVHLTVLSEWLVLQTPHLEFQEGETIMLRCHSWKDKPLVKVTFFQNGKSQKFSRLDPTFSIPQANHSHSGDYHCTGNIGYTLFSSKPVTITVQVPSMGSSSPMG
# T3: human FcγRIIa (131H), His- and GST-tagged (human, UniProt P12318 34-217)
# T3 construct: also called H131 FcγRIIa; HIIa; not shown: 6xHis and GST tags of the pTT5 vector
# T3 sequence (looked up): T2 sequence (looked up) with R134H
# B1: G236D/S239D/S267E (antibody, human IgG1, kappa)
# heavy: EVQLVESGGGLVKPGGSLKLSCAASGYTFTSYVMHWVRQAPGKGLEWIGYINPYNDGTKYNEKFQGRVTISSDKSISTAYMELSSLRSEDTAMYYCARGTYYYGTRVFDYWGQGTLVTVSSASTKGPSVFPLAPSSKSTSGGTAALGCLVKDYFPEPVTVSWNSGALTSGVHTFPAVLQSSGLYSLSSVVTVPSSSLGTQTYICNVNHKPSNTKVDKKVEPKSCDKTHTCPPCPAPELLDGPDVFLFPPKPKDTLMISRTPEVTCVVVDVEHEDPEVKFNWYVDGVEVHNAKTKPREEQYNSTYRVVSVLTVLHQDWLNGKEYKCKVSNKALPAPIEKTISKAKGQPREPQVYTLPPSREEMTKNQVSLTCLVKGFYPSDIAVEWESNGQPENNYKTTPPVLDSDGSFFLYSKLTVDKSRWQQGNVFSCSVMHEALHNHYTQKSLSLSPGK
# light: DIVMTQSPATLSLSPGERATLSCRSSKSLQNVNGNTYLYWFQQKPGQSPQLLIYRMSNLNSGVPDRFSGSGSGTEFTLTISSLEPEDFAVYYCMQHLEYPITFGAGTKLEIKRTVAAPSVFIFPPSDEQLKSGTASVVCLLNNFYPREAKVQWKVDNALQSGNSQESVTEQDSKDSTYSLSSTLTLSKADYEKHKVYACEVTHQGLSSPVTKSFNRGEC
# notes: HuAM4G7 anti-CD19 IgG1 (m1) with these Fc substitutions, EU index; copies: 2 + 2
# B2: L234E/S267E (antibody, human IgG1, kappa)
# heavy: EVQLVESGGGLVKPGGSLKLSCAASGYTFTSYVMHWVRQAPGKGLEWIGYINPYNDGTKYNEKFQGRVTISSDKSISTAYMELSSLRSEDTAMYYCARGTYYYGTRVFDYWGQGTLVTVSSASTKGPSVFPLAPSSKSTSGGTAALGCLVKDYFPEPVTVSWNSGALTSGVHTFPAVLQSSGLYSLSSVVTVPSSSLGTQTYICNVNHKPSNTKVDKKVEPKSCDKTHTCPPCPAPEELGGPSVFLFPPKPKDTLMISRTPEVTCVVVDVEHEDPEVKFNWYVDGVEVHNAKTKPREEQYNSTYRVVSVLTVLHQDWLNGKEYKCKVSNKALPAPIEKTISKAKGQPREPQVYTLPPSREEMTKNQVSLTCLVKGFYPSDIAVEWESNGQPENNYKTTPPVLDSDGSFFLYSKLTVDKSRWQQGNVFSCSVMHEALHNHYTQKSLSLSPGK
# light: B1 light
# notes: as for B1
# B3: L234F/S267E (antibody, human IgG1, kappa)
# heavy: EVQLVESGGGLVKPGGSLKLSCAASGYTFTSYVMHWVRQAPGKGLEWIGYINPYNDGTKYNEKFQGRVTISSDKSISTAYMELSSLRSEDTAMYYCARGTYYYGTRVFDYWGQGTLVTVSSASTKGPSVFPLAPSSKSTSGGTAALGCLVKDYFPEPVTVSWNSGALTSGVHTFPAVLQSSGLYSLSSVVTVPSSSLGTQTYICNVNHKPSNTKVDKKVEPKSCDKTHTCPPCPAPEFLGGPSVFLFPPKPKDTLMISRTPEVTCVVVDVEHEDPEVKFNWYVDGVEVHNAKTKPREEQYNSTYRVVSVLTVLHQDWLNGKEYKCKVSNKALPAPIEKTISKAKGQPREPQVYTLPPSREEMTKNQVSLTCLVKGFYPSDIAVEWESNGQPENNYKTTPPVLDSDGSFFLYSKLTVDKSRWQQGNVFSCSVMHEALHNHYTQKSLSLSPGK
# light: B1 light
# notes: as for B1
# B4: L328F (antibody, human IgG1, kappa)
# heavy: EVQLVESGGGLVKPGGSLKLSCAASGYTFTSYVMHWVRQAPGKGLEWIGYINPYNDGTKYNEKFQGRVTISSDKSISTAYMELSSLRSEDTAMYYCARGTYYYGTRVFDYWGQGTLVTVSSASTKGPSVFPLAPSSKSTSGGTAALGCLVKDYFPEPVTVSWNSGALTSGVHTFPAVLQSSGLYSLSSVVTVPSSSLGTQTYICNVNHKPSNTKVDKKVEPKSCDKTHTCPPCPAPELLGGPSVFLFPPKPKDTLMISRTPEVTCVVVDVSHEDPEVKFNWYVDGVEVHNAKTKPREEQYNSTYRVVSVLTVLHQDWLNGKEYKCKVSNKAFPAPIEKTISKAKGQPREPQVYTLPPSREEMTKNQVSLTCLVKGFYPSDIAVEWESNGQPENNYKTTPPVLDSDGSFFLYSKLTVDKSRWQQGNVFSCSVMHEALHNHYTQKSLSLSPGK
# light: B1 light
# notes: HuAM4G7 anti-CD19 IgG1 (m1) with this Fc substitution, EU index; copies: 2 + 2
# B5: L234E/S267E/L328F (antibody, human IgG1, kappa)
# heavy: B1 heavy with L238E, D240G, D243S, L332F
# light: B1 light
# notes: as for B1
# B6: G236T (antibody, human IgG1, kappa)
# heavy: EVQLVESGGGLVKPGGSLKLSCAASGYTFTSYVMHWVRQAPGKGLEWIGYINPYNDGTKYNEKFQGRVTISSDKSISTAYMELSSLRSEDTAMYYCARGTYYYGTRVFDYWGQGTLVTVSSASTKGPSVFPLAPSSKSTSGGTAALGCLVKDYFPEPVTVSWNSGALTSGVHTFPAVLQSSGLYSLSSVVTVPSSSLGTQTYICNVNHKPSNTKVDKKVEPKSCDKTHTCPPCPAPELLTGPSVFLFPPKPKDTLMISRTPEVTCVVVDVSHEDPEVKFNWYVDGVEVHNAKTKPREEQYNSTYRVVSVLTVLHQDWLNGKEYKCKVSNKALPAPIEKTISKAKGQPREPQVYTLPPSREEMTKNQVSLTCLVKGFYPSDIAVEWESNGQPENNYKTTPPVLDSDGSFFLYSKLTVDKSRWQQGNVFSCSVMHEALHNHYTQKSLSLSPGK
# light: B1 light
# notes: as for B4
# B7: G236D/S267E/H268E (antibody, human IgG1, kappa)
# heavy: B1 heavy with D243S, H272E
# light: B1 light
# notes: as for B1
# B8: G236D/S267E/L328F (antibody, human IgG1, kappa)
# heavy: B1 heavy with D243S, L332F
# light: B1 light
# notes: as for B1
# B9: L234W (antibody, human IgG1, kappa)
# heavy: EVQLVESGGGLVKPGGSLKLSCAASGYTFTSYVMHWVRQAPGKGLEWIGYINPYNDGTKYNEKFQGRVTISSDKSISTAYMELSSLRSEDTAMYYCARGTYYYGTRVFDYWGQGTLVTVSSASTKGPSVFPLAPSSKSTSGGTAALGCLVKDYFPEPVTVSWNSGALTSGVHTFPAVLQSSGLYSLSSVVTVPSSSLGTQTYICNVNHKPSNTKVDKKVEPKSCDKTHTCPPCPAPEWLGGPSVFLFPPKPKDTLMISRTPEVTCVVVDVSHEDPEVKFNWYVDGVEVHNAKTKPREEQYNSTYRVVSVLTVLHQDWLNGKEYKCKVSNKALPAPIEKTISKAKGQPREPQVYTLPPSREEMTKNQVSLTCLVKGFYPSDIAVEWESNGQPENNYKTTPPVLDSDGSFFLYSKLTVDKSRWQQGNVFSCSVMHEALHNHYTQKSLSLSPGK
# light: B1 light
# notes: as for B4
# B10: L235D/S267E (antibody, human IgG1, kappa)
# heavy: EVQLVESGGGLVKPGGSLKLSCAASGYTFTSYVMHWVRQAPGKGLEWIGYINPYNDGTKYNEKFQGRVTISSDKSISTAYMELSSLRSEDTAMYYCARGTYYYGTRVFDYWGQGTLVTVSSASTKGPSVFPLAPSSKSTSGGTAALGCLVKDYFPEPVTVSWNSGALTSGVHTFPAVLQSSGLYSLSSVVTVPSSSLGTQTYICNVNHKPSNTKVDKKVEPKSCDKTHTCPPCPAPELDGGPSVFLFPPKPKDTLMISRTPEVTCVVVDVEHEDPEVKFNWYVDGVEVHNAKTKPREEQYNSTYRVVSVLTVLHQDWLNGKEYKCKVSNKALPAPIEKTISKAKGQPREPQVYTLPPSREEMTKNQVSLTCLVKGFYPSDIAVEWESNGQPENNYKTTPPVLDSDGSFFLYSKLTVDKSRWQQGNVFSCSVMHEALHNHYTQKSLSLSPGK
# light: B1 light
# notes: as for B1
# B11: G237D/S267E (antibody, human IgG1, kappa)
# heavy: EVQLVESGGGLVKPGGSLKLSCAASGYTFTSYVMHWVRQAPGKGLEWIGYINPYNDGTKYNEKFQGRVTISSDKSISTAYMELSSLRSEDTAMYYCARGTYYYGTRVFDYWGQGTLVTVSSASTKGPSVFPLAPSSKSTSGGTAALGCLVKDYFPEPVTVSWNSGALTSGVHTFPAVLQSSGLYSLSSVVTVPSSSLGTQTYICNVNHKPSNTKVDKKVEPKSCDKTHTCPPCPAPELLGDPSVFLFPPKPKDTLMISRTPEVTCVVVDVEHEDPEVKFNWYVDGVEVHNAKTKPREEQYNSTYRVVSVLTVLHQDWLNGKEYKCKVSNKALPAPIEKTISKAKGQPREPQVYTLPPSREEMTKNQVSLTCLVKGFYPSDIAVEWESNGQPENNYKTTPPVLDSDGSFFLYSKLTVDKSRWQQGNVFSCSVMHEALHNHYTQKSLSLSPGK
# light: B1 light
# notes: as for B1
# B12: L235Y/G236D/S267E (antibody, human IgG1, kappa)
# heavy: B1 heavy with L239Y, D243S
# light: B1 light
# notes: as for B1
# B13: L235I (antibody, human IgG1, kappa)
# heavy: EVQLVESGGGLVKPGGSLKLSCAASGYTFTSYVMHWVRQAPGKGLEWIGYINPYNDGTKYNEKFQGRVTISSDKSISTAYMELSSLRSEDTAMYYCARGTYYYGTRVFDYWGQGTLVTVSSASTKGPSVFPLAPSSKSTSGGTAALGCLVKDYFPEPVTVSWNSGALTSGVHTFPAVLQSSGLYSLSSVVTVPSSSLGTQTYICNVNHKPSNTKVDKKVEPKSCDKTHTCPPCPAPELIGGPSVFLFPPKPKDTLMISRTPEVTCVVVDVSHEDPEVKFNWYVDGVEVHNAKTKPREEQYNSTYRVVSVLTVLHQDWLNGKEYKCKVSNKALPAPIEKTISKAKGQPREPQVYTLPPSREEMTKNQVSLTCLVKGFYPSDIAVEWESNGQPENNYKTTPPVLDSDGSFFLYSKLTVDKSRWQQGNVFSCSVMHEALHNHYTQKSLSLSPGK
# light: B1 light
# notes: as for B4
# B14: L235D/S267E/L328F (antibody, human IgG1, kappa)
# heavy: B1 heavy with L239D, D240G, D243S, L332F
# light: B1 light
# notes: as for B1
# B15: G237N/S267E (antibody, human IgG1, kappa)
# heavy: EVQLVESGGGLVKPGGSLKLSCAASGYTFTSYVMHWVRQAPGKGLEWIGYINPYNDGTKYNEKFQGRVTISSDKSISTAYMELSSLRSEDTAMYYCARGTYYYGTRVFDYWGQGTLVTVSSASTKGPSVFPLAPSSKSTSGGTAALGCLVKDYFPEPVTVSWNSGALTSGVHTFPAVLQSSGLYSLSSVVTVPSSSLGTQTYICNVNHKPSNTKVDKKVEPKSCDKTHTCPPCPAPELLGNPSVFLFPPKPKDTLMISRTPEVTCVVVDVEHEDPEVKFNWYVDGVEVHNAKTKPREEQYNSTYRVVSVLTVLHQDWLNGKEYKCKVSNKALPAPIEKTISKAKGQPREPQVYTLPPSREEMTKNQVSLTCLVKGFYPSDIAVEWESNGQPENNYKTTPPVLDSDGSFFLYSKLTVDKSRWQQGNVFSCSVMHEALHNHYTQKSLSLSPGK
# light: B1 light
# notes: as for B1
# Target: T1, human FcγRIIb receptor protein (R&D …)
# Test: SPR
Fold vs WT IgG1 [fold],Kd [µM],Binder
84.8,0.0173,B1
15.1,0.097,B2
26.4,0.0557,B3
,0.541,B4
195,0.00753,B5
0.00225,652,B6
110,0.0134,B7
149,0.00987,B8
,1.77,B9
16.7,0.0881,B10
17,0.0861,B11
25,0.0587,B12
0.908,1.61,B13
80.4,0.0182,B14
40.5,0.0362,B15

# Target: T4, human FcγRI receptor protein (R&D Systems) (human, UniProt P12314 16-288)
# T4 construct: also called soluble FcγRI; solFcγRI
# Test: SPR
# T4 sequence (P12314 16-288 limits assumed): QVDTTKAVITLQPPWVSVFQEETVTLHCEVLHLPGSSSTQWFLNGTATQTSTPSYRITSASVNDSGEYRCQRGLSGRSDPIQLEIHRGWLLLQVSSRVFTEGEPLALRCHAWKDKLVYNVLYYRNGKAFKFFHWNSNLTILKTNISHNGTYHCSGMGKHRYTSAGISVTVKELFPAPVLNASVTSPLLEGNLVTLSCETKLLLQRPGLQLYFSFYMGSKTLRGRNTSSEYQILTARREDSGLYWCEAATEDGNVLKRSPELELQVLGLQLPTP
Fold vs WT IgG1 [fold],Kd [µM],binding result,Binder
0.0685,0.00481,,B1
0.131,0.00251,,B2
0.661,0.000498,,B3
,0.000452,,B4
0.0425,0.00775,,B5
0.0157,0.021,,B6
0.0902,0.00365,,B7
0.0736,0.00448,,B8
,0.0105,,B9
0.00039,0.854,,B10
0.0874,0.00377,,B11
,,no binding,B12
0.0197,0.0167,,B13
0.00057,0.573,,B14
0.101,0.00325,,B15

# Target: T2, human FcγRIIa (131R), His- and …
# Test: SPR
Fold vs WT IgG1 [fold],Kd [µM],Binder
26.7,0.0322,B1
10.7,0.0804,B2
20.7,0.0416,B3
,0.166,B4
174,0.00493,B5
0.35,2.46,B6
29.9,0.0287,B7
59.9,0.0143,B8
13,0.0661,B10
13.6,0.0631,B11
9.67,0.0888,B12
0.666,1.29,B13
133,0.00645,B14
61.5,0.014,B15

# Target: T3, human FcγRIIa (131H), His- and …
# Test: SPR
Fold vs WT IgG1 [fold],Kd [µM],binding result,Binder
0.217,2.98,,B1
,,no binding,B2
0.509,1.27,,B3
0.0725,8.92,,B5
0.486,1.33,,B6
0.103,6.3,,B7
0.0301,21.5,,B8
,1.16,,B9
,,no binding,B10
,,no binding,B11
,,no binding,B12
0.181,3.58,,B13
0.275,2.35,,B14

# Target: T5, human FcγRIIIa (158V), His- and GST-tagged (human, UniProt P08637 17-208)
# T5 construct: also called V158 FcγRIIIa; VIIIa; not shown: 6xHis and GST tags of the pTT5 vector
# Test: SPR
# T5 sequence (P08637 17-208 F176V): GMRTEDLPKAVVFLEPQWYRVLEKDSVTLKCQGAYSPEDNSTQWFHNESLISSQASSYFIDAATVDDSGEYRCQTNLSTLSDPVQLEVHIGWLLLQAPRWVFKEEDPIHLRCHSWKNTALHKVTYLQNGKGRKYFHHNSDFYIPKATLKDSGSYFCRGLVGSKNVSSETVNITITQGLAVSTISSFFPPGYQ
binding result,Fold vs WT IgG1 [fold],Kd [µM],Binder
no binding,,,B1
no binding,,,B2
,0.0938,2.04,B3
,,58.4,B4
no binding,,,B5
no binding,,,B6
no binding,,,B7
no binding,,,B8
,,6.59,B9
no binding,,,B10
no binding,,,B11
no binding,,,B12
,0.903,0.212,B13
no binding,,,B14
no binding,,,B15
